Measured values published in publication PMC5462737.

What was measured:
[1] = target: F1Fo ATP synthase from E. coli, labeled with ATTO 594 (E. coli) (UniProt P0ABB4)
[2] = target: F1Fo ATP synthase from E. coli, labeled with ATTO 594 (E. coli) (UniProt P0ABB4); remark: listed apart in the source

UniProt P0ABB4, sequence (P0ABB4 whole entry, looked up): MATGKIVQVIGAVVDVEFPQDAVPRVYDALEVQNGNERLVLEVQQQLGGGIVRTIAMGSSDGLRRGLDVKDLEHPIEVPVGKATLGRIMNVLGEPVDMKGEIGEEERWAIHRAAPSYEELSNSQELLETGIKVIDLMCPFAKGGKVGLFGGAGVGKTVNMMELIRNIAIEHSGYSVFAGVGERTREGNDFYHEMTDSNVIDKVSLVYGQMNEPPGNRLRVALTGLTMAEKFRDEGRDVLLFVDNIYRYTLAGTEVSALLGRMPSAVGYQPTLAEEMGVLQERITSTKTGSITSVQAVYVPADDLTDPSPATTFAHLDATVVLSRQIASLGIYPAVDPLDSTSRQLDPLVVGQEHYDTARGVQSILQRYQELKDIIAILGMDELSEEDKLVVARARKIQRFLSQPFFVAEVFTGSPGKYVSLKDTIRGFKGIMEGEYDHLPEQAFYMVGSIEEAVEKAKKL

| normalized ATP-synthesis rate in 100 nm DOPC:DOPG vesicles, 0-40% DOPG, relative to 100% DOPC; value at 60% DOPC [1] | coupled activity (ATP-synthesis rate driven by proton pumping of cyt. bo3; luciferin/luciferase luminescence) in 100 nm DOPC vesicles, relative to unlabeled proteins [2] | coupled activity (ATP-synthesis rate driven by proton pumping of cyt. bo3) in 100 nm DOPC vesicles, increase relative to unlabeled proteins [2] | Substance |
| --- | --- | --- | --- |
| 60% | 5 fold |  | cytochrome bo3 (ubiquinol oxidase) from E. coli, labeled with ATTO 647N (complex) |
|  |  | < 2 fold | cytochrome bo3 (ubiquinol oxidase) from E. coli, labeled with Abberior STAR 635 (complex) |
